Experimental data taken from patent publication US20230312722A1 (NONA BIOSCIENCES SUZHOU, published 2023).
Residue numbers refer to the chain shown, from its start.

Key:
[1] = target: T1, human B7H4 on the cell surface (human, UniProt Q7Z7D3 25-282); experiment: FACS, CHOK1/hu B7H4 cells
T1 construct: whole, on cells; also called CHOK1/hu B7H4; B7H4 on SK-BR-3
T1 sequence (looked up): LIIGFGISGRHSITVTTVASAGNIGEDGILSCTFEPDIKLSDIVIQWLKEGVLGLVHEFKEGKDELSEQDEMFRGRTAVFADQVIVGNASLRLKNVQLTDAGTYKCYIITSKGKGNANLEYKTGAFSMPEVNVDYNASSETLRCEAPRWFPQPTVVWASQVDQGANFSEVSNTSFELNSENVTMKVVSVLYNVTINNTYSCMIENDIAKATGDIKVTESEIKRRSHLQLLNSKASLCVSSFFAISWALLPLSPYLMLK
Method: (§1) This example is intended to investigate the in vitro binding activity of anti-human B7H4 H2L2 monoclonal antibody to human/cynomolgus monkey/mouse B7H4. Antibody binding experiments at the cellular level were performed using CHOK1 cell line overexpressing human B7H4 (CHOK1/hu B7H4, Harbour BioMed), CHOK1 cell line overexpressing cynomolgus monkey B7H4 (CHOK1/cyno B7H4, Harbour BioMed), CHOK1 cell line overexpressing mouse B7H4 (CHOK1/m B7H4, Harbour BioMed) and SK-BR-3 cell line (ATCC® HTB-30) highly expressing human B7H4. Briefly, CHOK1/hu B7H4 cells, CHOK1/cyno B7H4 cells, CHOK1/m B7H4 cells or SK-BR-3 cells were digested and resuspended with PBS containing 2% BSA. The cell density was adjusted to 1×10⁶ cells/mL. The cells were seeded in a 96-well V-bottom plate (Corning, #3894) at 100 μL/well, followed by the addition of test antibodies diluted in a 3-fold concentration gradient of 2 times the final concentration, each at 100 μL/well. The cells were incubated at 4° C. for 2 h away from light. Thereafter, the cells in each well were rinsed twice with 100 μL of pre-cooled PBS containing 2% BSA, and centrifuged at 500 g at 4° C. for 5 min, and then the supernatant was discarded. Then 100 μL of a fluorescent secondary antibody (Alexa Fluor 488-conjugated AffiniPure Goat Anti-Human IgG, Fcγ Fragment Specific, Jackson, #109-545-098, 1:500 diluted) was added to each well. The plate was incubated away from light at 4° C. for 1 h. The cells in each well were washed twice with 100 μL of pre-cooled PBS containing 2% BSA, and centrifuged at 500 g at 4° C. for 5 minutes, and then the supernatant was discarded. Finally, the cells in each well were resuspended with 200 μL of pre-cooled PBS containing 2% BSA, and the fluorescence signal values were read using an ACEA Novocyte3000 flow cytometer.

[2] = target: T2, mouse B7H4 on the cell surface (mouse, UniProt Q7TSP5 25-257); experiment: FACS, CHOK1/m B7H4 cells
T2 construct: whole, on cells; also called CHOK1/m B7H4
T2 sequence (looked up): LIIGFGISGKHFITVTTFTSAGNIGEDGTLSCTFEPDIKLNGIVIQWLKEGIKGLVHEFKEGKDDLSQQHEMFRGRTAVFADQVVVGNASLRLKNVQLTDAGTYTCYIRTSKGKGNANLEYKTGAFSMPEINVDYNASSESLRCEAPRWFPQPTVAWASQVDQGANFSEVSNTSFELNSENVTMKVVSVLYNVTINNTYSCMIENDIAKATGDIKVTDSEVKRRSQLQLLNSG
Method: as §1, with “Then 100 μL of a fluorescent secondary antibody (Alexa Fluor 488-conjugated AffiniPure Goat Anti-Human IgG, Fcγ Fragment Specific, Jackson, #109-545-098, 1:500 diluted) was added to each well. The plate was incubated away from light at 4° C. for 1 h. The cells in each well were washed twice with 100 μL of pre-cooled PBS containing 2% BSA, and centrifuged at 500 g at 4° C. for 5 minutes, and then the supernatant was discarded.” left out

[3] = target: T3, cynomolgus monkey B7H4 on the cell surface (cynomolgus monkey, UniProt A0A2K5U6P5 25-282); experiment: FACS, CHOK1/cyno B7H4 cells
T3 construct: whole, on cells; also called CHOK1/cyno B7H4
T3 sequence: T1 sequence (looked up) with L53I, F242L, S252A
Method: as §1

[4] = target: T4, B7-H4 (Acro Biosystems, #B74-H82E2) (UniProt Q7Z7D3 29-258); experiment: BLI epitope competition; 1st Ab = row; competitor (2nd Ab) PR002418; inhibition of the 2nd Ab signal
T4 construct: Bought protein; also called B7-H4 captured on SA sensor
T4 sequence (looked up): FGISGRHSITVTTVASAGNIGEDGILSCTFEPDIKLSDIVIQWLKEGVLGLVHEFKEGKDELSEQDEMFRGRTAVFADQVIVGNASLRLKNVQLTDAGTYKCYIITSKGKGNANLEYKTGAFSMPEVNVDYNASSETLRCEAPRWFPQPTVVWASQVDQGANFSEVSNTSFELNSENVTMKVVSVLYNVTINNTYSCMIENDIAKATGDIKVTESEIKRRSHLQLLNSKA
Method: Step one, acquisition of 100% signal of antibodies: B7-H4 (Acro Biosystems, #B74-H82E2-200 μg) was captured at a capture height of 0.25 nm using an SA sensor (Fortebio, #18-5019). The sensor was equilibrated in a buffer for 120 s and then immersed in each antibody diluted to 100 nM for 240 s, and the final signal of the antibody binding to B7-H4 was recorded as the 100% signal of the antibody. Step two, epitope competition experiment: B7-H4 was captured using an SA sensor at a capture height of 0.25 nm. The sensor was immersed in a primary antibody (at a concentration of 100 nM) for 240 s, and then the SA sensor was immersed in a mixture of the primary and secondary antibodies (both at a final concentration of 100 nM) for 240 s, and the difference in signals after immersion of the sensor in the antibody mixture was recorded as the signal of the antibody as the secondary antibody. The inhibition rate was calculated according to the following formula: […]

EC50 [1]: 1.94 nM
Maximum MFI [1]: 1.84e+06 MFI
EC50 [2]: 1.73 nM
Maximum MFI [2]: 1.75e+06 MFI
EC50 [3]: 2.06 nM
Maximum MFI [3]: 1.32e+06 MFI
Competitive inhibition rate (%) [4]: 4.55%
B1: Control antibody 1 (PR000157) (antibody, V domains shown)
VH: EVQLVQSGAEVKKPGASVKVSCKASGYTFTSYWIGWVRQAPGQGLEWIGDIYPGGGYTNYNEKFKGRVTITRDTSTSTAYLELSSLRSEDTAVYYCARLAGSSYRGAMDSWGQGTLVTVSS
VL: DIQMTQSPSSLSASVGDRVTITCKASQGFNKYVAWYQQKPGKAPKLLIYYTSTLQPGVPSRFSGSGSGRDYTLTISSLQPEDFATYYCLQYGDLLYAFGQGTKVEIKR
notes: Anti-B7H4 IgG1 control antibody from WO2016040724A1; also called 1D11.v1.9varC2
